Assay results published in the DeepSol protein solubility set.

assay: soluble on expression in E. coli; label from the status in PepcDB or PDB records

Sequence | soluble on expression in E. coli
MSLRGGAQALECYSCVQKADDGCSPNKMKTVKCAPGVDVCTEAVGAVETIHGQFSMAVRGCGSGLPGKNDRGLDLHGLLAFIQLQQCAQDRCNAKLNLTSRALDPAGNESAYPPNGVECYSCVGLSREACQGTSPPVVSCYNASDHVYKGCFDGNVTLTAANVTVSLPVRGCVQDEFCTRDGVTGPGFTMSGSCCQGSRCNSDLRNKTYFSPREGHHHHHH | not soluble
MGSDKIHHHHHHMNYIYSFINGDFMRFFNREKEITEILSILEGNPDLVYFVYGPLNSGKTALISEIINNRIDKNKYVVFYINLRGIFISKYKDFIEVLFEEYEEDRKPVEIIKSLIKDVPSLCGIPTPKNTLEEILKKKTTKNVFKYITNVLMDIKKEGKQPIIIIDELQKIGDMKINGFLIYELFNYFVDLTKELHLCHVFCLSSDSLFIEQVYSEAMLKDRVDYILVDDFDKETALKFMDFLAEEILNKKLSDDEKELIYSYVGGKPILIIKVIKKLKIKGLKETLDEMLRDEMQKLKYFLEDIKEKDEESYNKIADALEIFKDSYEIEDIKIPKNIREFLVKKNILFLNPQKGTLKPQSYLVWNAIKRLL | not soluble
VHNAGRMVVMKSRPLGEAEAVLDPSSATVDDFSISRGGDTIAYVKMGPTSPPDIYIYRDDNEYRLTDHNAWFAESRSLAEPVRLQVQSPLGGSIDAWILLPPDAGECSGCLPWILYIHGGPKTSYGYAFIHEFQMLASQGFAVIYSNPRGSDGYSEEFADLRGRYGVDDYSELMKVVDEALSDFPQLDPQRGGVTGGSYGGYMTNVIVTKTRRFKAAVTQRSCSNWISFYGESDIGWYFAPELISAQEPWRDLEKYVDFSPLFSVENIETPLLIIHSTEDFRCPLSGAIQLFTALKLKGVETRLLVFPGENHNLSRSGTPKRRVARLRAIASWFKEHLG | not soluble
MDRKGFLKSTMIATGSLLLGGAGICRFLNDKEPADGPFPRTIEKIHCGNMKKVLVIMSAGTKLGNTDRLTDAYIKGLVERGHSVTKVYLGSMRIEGCRGCGVCQRLAHQCAVRDGMQDIYPLFAECDTVVMASPLYFWTITSQLKAFIDRLYAISADDKYPQKDTVLLMTAGDDNENTFDQPKQYFRLLSQALGWNEVGIYCAGGCTGCEKLARQIDKVHLENVYKMGLEL | not soluble
SMPDEVPLDEQCERLPYDASKWEFARERLKLGKSLGRGAFGKVVQASAFGIKKSPTCRTVAVKMLKEGATASEYKALMTELKILTHIGHHLNVVNLLGACTKQGGPLMVIVEYCKYGNLSNYLKSKRDLFFLNKDAALHMEPKKEKMEPGLEQGKKPRLDSVTSSESFASSGFQEDKSLSDVEEEEDSDGFYKEPITMEDLISYSFQVARGMEFLSSRKCIHRDLAARNILLSENNVVKICDFGLARDIYKNPDYVRKGDTRLPLKWMAPESIFDKIYSTKSDVWSYGVLLWEIFSLGGSPYPGVQMDEDFCSRLREGMRMRAPEYSTPEIYQIMLDCWHRDPKERPRFAELVEKLGDLL | soluble
MGSDKIHHHHHHMKTTSPSSYDEMLNADGSVRSAYAGYCKWYDEQPPDLLRRKGSEAEAFFRRTGITFNVYGNEDAEERLIPFDMVPRIITAQQWRKLSRGIEQRVRALNAFLHDLYHRQEIVRSGRLPVRLLKGNEAFLPEMVGFTPPGGVYTHIVGIDLVRTGEDDFMVLEDNARTPSGVSYMLENRETMMAMFPELFTRVRVREVSDYPRRLARSLAACAPPACDGKKPVVAVLTPGIYNSAYFEHAFLADQMGAELVEGSDLRVENGRIAMRTTRGYQPIDVLYRRVDDEYLDPLSFNPGSVLGVSGIMDVYRSGGITIANAPGTGIADDKAIYSFMPEIVEFYTGEKPILQNVPTWRCAEPDALAYVLDNLAELVVKEVHGSGGYGMLIGPTSSRKELAAFEAKLRARPENYIAQPTLSLSTVPILTKAGLAPRHVDLRPFVLVSPNGIDITPGGLTRVALKKGSLVVNSSQGGGTKDSWVLDD | not soluble
MGSDKIHHHHHHMTDSRQRLLVFAPTRRVASETFVRANLAGLPFEVSAYFGDEFPLDQPGRFAYGLGVLLSKIFTRLGWLRLAELPAAFVAWILIRRHRPDVVLAEFGFHAVRVMQAAARVDVPFVVHFRGSDLSANRRLGVLRSRYRRLVSIASGVVCKSRPMATTLEQLGASPSTILISPSGANPALFSVGDPALAAPVFLAVGRFVAKKGPLQTIRAFAGQPQGELWMVGEGPLLAEARRLVQALQVQDRVRFLGVKTQSEVAALMRQARVFVQHSQIAPDGDSEGNPVSVMEAQLCGLPVVATLHAGIPDVVLDGSTGLLVEENDVDGMAEAMTRLMADPNLAAQFGLAGRERVLAAFTLEHHLQDLTRFLQQQIRSTTHF | not soluble
MSITEQVDVAIVGSGPAGLAAAIELRRQGVARVCVLERDGEAGGIPRHCAHPPFGLREHGRLLTGPAYAQRNVEQAERAGVDIRLRHSVVALAAAGLLQLATPEGPRSLRATRVLLATGARETPRSARLLGGDRPLGVINTGALQAYLYLQGLKPFERPLIVGTELVSLSAVMSCRRAGIRPVAMLERNARATARWPLSLFPRLCGVPMHFSSELLEIEGRGRVEAARVRLGDGRVERIACDGILLSGRFVPESSLVRLSHLELDPASGGPRIDQFGRCSDPAYFAAGNLLRPIETAGWSFREGRRIAGLLAADLRAELPSAAPGIAIDCSGPLKLCVPQRLLADPTPGLAHLQLRVSEAASGRLRILADGRPVWERALSCLPERRLLVPLAALRLPPDTRRLEVAFLTSGHLEHHHHHH | not soluble
MSLRVVLKLGTSVLTAGTDRLHRPRLVDLMRDIAAVSAQGHEVVLVSSGAVTAGWEALGFPPRERTLAEKQLLAAVGQVQLMHLYTSLAELYGLRSAQLLLTADDFRERTRYLNARTTLEGCLSRGVLPVINENDTVAVEQIKVGDNDTLSAFVANLVEADLLLILTDAPGLYTADPRTHPDATLIPVVERVTPDIWALAGGAGSHRGTGGMHTKIQAAEIATRAGTPVVIAPGDLPEALRRVVDGEALGTRFLAHGTRLEARKRWILAEIAHGRLLLDGGAAQAVRERGSSLLPAGIRQVEGDFERGHTVRLLAPDGQELGRGLTRYRADDLRRVCGHHSREIEALLGYTYGEEAVHRDDLVLLEGHHHHHH | soluble
MTQPELTPAQRTEVELLARGRADKSRVLRDLKLPETPEAAHALLLRLGVWDEARTPYADRLRAALNAVELPVPDFDPAEERLDLTHLPTFAIDDEGNQDPDDAVGVEDLGGGLTRLWVHVADVAALVAPDSPLDLEARARGATLYLPDRTIGMLPDELVAKAGLGLHEVSPALSICLDLDPDGNAEAVDVLLTRVKVQRLAYQEAQARLEAGEEPFVTLARLARASRRLREGEGALSIDLPEVRVKADETGASVFPLPKPEMRTVVQECMTLAGWGTAIFADDNEIPLPFATQDYPTREVAGDTLPAMWARRKTLARTRFQPSPGPHHGMGLDLYAQATSPMRRYLDLVVHQQLRAFLAGRDPLSSKVMAAHIAESQMNADATRQAERLSRRHHTLRFIAAQPERVWDAVVVDRRGAQATLLIPDLAFDVQVNTPAAPGTALQVQFADIDLPQMRVRARSVLEHHHHHH | soluble
MASLGEILEGRATDIYFVRTRRVAEKYGVGGKRVRMEVHAYSLPRGYEWAVYAGLEEALALLQGKPVTVYSLPEGTVFERKDPLMVVEGRFQDIILFETALLGLLRFSTSIATKAARVRLAAGRGKTVLFFGLRALHPAVQPAADRAALVGGLDGVSGVLSREYLGVEPRGTMPHALIIVFGSQVEAWRAFAETFKEETPVIALVDTFWDEREEALMAARELGEVLAGVRLDTPSSRRGRMRDIVEEVRWALDIHGYKHVKIFVSGGLDEERVAELRDVADGFGVGTTIAAAPNIDISMDVVEVHEDGEWRPRTKRGKLPGARSIVLCRGEKRIVRLGEEPEGCEPLTRKYLEEGRLAQSLPSLDEIRSYVLKQLENLGLQ | soluble
METKQKERIRRLMELLKKTDRIHLKDAARMLEVSVMTIRRDLSQDDDPLPLTLLGGYIVMVNKPASSTNMPLPAKKTHHRDDLPVAILAAGLVRENDLVFFDNGPEMPLVISMIPDDITFTGICYSHRVFIALNEKPNATAILCGGTYRAKSDAFYDANNPSALDSLNPRKVFISASGVHEHFGVSWFNPDDLAAKRKAMERGLRKILLARHALFDEVAPASIGPLSAFDVLISDRPLPTDYAVHCRNGSVKVITPDSESE | not soluble
